Results reported in patent publication US20210324359A1, “USE OF GRAM-NEGATIVE LYSIN-ANTIMICROBIAL PEPTIDE (AMP) POLYPEPTIDE CONSTRUCTS IN TREATING ENDOCARDITIS” (priority 2020, published 2021).

Legend:
[1] = system: Pseudomonas aeruginosa strain CFS-1292 (meropenem resistant); experiment: MIC in 25% CAA alone, with […] human serum or […] SURVANTA (Table 13); assay type: cell-based
Procedure: (§1) Materials and methods: MICs were determined by broth microdilution in media supplemented with human serum and pulmonary surfactant ([…]®; Myoderm Clinical Supplies). Minimal biofilm eradicating concentrations (MBECs) were determined using standard methods. […] Fluorescence microscopy was performed after LIVE/DEAD staining (ThermoFisher) and TEM was performed.

[2] = system: biofilms formed by P. aeruginosa strain ATCC 17646; details: strain ATCC 17646 biofilm
Procedure: (§2) Biofilms are then washed and treated with e.g., a 2-fold dilution series of the lysin in TSBg at e.g., 37° C. for 24 hours. After treatment, wells are washed, air-dried at e.g., 37° C. and stained with e.g., 0.05% crystal violet for 10 minutes.

[3] = system: outer membrane of P. aeruginosa (CFS 1292); experiment: N-phenyl-1-napthylamine (NPN) uptake assay, outer membrane destabilization (Table 15); assay type: cell-based, Pseudomonas aeruginosa; details: NPN fluorescence, buffer = 100, lysin 100 μg/well
Procedure: The ability of gram-negative lysins to destabilize the outer membrane of P. aeruginosa was evaluated through the use of an N-phenyl-1-napthylamine (NPN) uptake assay. […] NPN was added to a final concentration of […]. […] Changes in fluorescence were recorded (excitation 1=350 nm; emission 1=420 nm) over two hours.

[4] = system: Pseudomonas aeruginosa biofilm; experiment: MBEC in CAA supplemented with […] human serum (Table 14); assay type: cell-based
Procedure: as §2, §1

[5] = system: carbapenem-resistant P. aeruginosa strains; experiment: Resensitization of carbapenem-resistant strains, combinations with imipenem or meropenem (Tables 18-22); assay type: cell-based, Pseudomonas aeruginosa; details: for FICI: isolate WC-452
Procedure: Such resensitization may be determined by combining the present lysins or lysin-AMP polypeptide constructs with an antibiotic in a checkerboard assay as described herein. Antibiotic-resistant bacteria, such as carbapenem-resistant P. aeruginosa, are added to the lysin or lysin-AMP polypeptide construct combination. […] See Clinical and Laboratory Standards Institute (CLSI), CLSI. […] M100 Performance Standards for Antimicrobial Susceptibility Testing; 29th Edition. Clinical and Laboratory Standards Institute, Wayne, Pa., which is herein incorporated by reference in its entirety.
Up to seven carbapenem-resistant isolates were assessed. […] See Clinical and Laboratory Standards Institute (CLSI), CLSI. […] M100 Performance Standards for Antimicrobial Susceptibility Testing; 29th Edition. Clinical and Laboratory Standards Institute, Wayne, Pa.

[6] = system: P. aeruginosa isolates; experiment: MIC against a range of isolates in CAA + […] human serum (Table 11); assay type: cell-based, Pseudomonas aeruginosa
[7] = system: P. aeruginosa; experiment: MIC, modified CLSI broth microdilution in CAA medium without or with […] human serum (Table 4); assay type: cell-based, Pseudomonas aeruginosa; on CAA/HuS MIC: CAA supplemented with 2.5% human serum
Text: 2015. […] Clinical and Laboratory Standards Institute, Wayne, Pa.

[8] = system: P. aeruginosa strains; experiment: Checkerboard synergy with meropenem in 25% CAA and […] human serum (Table 16); assay type: cell-based, Pseudomonas aeruginosa; details: for FICI value (Run #1), with meropenem / FICI value (Run #2), with meropenem: 25% CAA and […] human serum
[9] = system: Pseudomonas aeruginosa strain CFS-1292 (meropenem resistant); details: strain CFS-1292; no added cations
Procedure: The activity of selected GN lysins and constructs in the presence of divalent cations was evaluated, and the impact of divalent cations at physiological concentrations was examined in the MIC assay format.

[10] = system: P. aeruginosa strain WC-453; experiment: Time-kill assay in HEPES or CAA with 25% human serum (Tables 7, 8); assay type: cell-based, Pseudomonas aeruginosa
Procedure: Exponential phase bacteria were then pelleted and resuspended in 1/5 culture volume of 25 mM HEPES, pH 7.4 before a final adjustment to an optical density corresponding to a McFarland value of 0.5. […] All treatments were incubated at 37° C. with aeration. At time points before the addition of lysin (or buffer control) and at 1 hour and 3 hours intervals thereafter, culture samples were removed for quantitative plating on CAA agar plates.

B1: GN351: lysin-AMP construct: TAGGTAGG linker and amurin peptide Ecp2 C-terminal to GN316 lysin (SEQ ID NO: 32) (protein)
chain: MAILKIGSKGLEVKNLQTSLNKIGFNLVADGIFGKATDNAVRAVQAGAGLVVDGIAGPKTMYAIRNAGESHQDHLTEADLIDAARELSVDLASIKAVNQVESRGTGFTKSGKIKTLFERHIMYKKLNAKFGQAKANALAQLYPTLVNAKAGGYTGGDAELERLHGAIAIDKDCAYESASYGLFQIMGFNCVICGYDNAEEMFNDFLTGERAQLMAFVKFIKADANLWKALKDKNWAEFARRYNGPAYAQNQYDTKLAAAYKSFSTAGGTAGGARSRRRMSKRSSRRSFRKYAKSHKKNFKARSMRGGIRL
With B1 the “MIC in […] Survanta” value [1] was 4 µg/mL, the “MIC in human serum ([…]) in CAA” value [1] was 0.0625 µg/mL and the “activity in human serum and pulmonary surfactant” value [1] was “active in human serum and pulmonary surfactant”. For the same molecule, the “25% CAA MIC” value ([1]; media alone) was 1, the MBEC [2] was 1 µg/mL and the “% RFU” value ([3]; 5 minutes) was 381 % RFU. For the same molecule, the “% RFU” value ([3]; 10 minutes) was 406 % RFU, the “% RFU” value ([3]; 20 minutes) was 407 % RFU and the “% RFU” value ([3]; 40 minutes) was 386 % RFU. The “% RFU” value ([3]; 60 minutes) was 383 % RFU, the “% RFU” value ([3]; 100 minutes) was 338 % RFU and the “MBEC in CAA supplemented with […] human serum” value [4] was 0.5 µg/mL. The “resensitization to carbapenems in synergistic combinations” value ([5]; imipenem (IPM) and meropenem (MEM), carbapenem-resistant isolates) was “reductions of IPM and MEM MICS to below breakpoint values”, the FICI ([5]; lysin + imipenem) was 0.156 and the FICI ([5]; lysin + meropenem) was 0.188. The “Antibiotic MIC / Lysin MIC, Alone” value ([5]; vs. WC-452 (Table 22)) was 1, the “activity against P. aeruginosa isolates in human serum or SURVANTA” value ([6]; Tables 11 and 12) was “active against a variety of P. aeruginosa isolates” and the “MIC, CAA + […] Human Serum” value ([6]; strain CFS 1109 (ATCC 17646)) was 1 µg/mL. For the same molecule, the “MIC, CAA + […] Human Serum” value ([6]; strain CFS 1292) was 1 µg/mL, the “MIC, CAA + […] Human Serum” value ([6]; strain CFS1539 (PA1)) was 0.5 µg/mL and the “MIC, CAA + […] Human Serum” value ([6]; strain CFS 1540 (PA2)) was 0.5 µg/mL. The “MIC, CAA + […] Human Serum” value ([6]; strain CFS 1541 (PA3)) was 0.5 µg/mL, the “MIC, CAA + […] Human Serum” value ([6]; strain CFS 1557 (PA19)) was 4 µg/mL and the “MIC, CAA + […] Human Serum” value ([6]; strain CFS 1558 (PA20)) was 1 µg/mL. For the same molecule, the “MIC, CAA + […] Human Serum” value ([6]; strain CFS 1559 (PA21)) was 2 µg/mL, the “MIC, CAA + […] Human Serum” value ([6]; strain CFS 1560 (PA22)) was 2 µg/mL and the “MIC, CAA + […] Human Serum” value ([6]; strain CFS 1561 (PA23)) was 2 µg/mL. The “MIC, CAA + […] Human Serum” value ([6]; strain CFS 1562 (PA24)) was 2 µg/mL, the “MIC, CAA + […] Human Serum” value ([6]; strain CFS 1596 (PA26)) was 1 µg/mL and the “MIC, CAA + […] Human Serum” value ([6]; strain CFS 1597 (PA27)) was 0.5 µg/mL. For the same molecule, the “MIC, CAA + […] Human Serum” value ([6]; strain CFS 1669 (PA41)) was 1 µg/mL, the “MIC, CAA + […] Human Serum” value ([6]; strain CFS 1674 (PA46)) was 1 µg/mL and the “MIC, CAA + […] Human Serum” value ([6]; strain CFS 1675 (PA47)) was 0.5 µg/mL. The “MIC, CAA + […] Human Serum” value ([6]; strain CFS 1766 (ATCC 27853)) was 2 µg/mL, the “CAA MIC” value ([7]; CAA medium, no human serum) was 8000 µg/mL and the “CAA/HuS MIC” value ([7]; CAA supplemented with […] human serum) was 125 µg/mL. The synergy with meropenem ([8]; FICI less than or equal to 0.5 = potent synergy) was “exhibited synergy with meropenem”, the “FICI value (Run #1), with meropenem” value ([8]; strain CFS 1292) was 0.1875 and the “FICI value (Run #2), with meropenem” value ([8]; strain CFS 1292) was 0.219. The “FICI value (Run #1), with meropenem” value ([8]; strain CFS 1557 (PA19)) was 0.25, the “FICI value (Run #2), with meropenem” value ([8]; strain CFS 1557 (PA19)) was 0.292 and the “FICI value (Run #1), with meropenem” value ([8]; strain CFS 1558 (PA20)) was 0.1562. The “FICI value (Run #2), with meropenem” value ([8]; strain CFS 1558 (PA20)) was 0.177, the “FICI value (Run #2), with meropenem” value ([8]; strain CFS 1559 (PA21)) was 0.177 and the “FICI value (Run #2), with meropenem” value ([8]; strain CFS 1560 (PA22)) was 0.323. The “FICI value (Run #2), with meropenem” value ([8]; strain CFS 1561 (PA23)) was 0.240, the “FICI value (Run #2), with meropenem” value ([8]; strain CFS 1562 (PA24)) was 0.177 and the “FICI value (Run #2), with meropenem” value ([8]; strain CFS 1766 (ATCC 27853)) was 0.109. For the same molecule, the “MIC in 25% CAA” value [9] was 1 µg/mL, the “bactericidal activity (CFU decrease of 3-Log10, 3 hours after the addition of lysin)” value ([10]; 10 μg/mL, enumerated lysins in CAA/HuS, general statement for HEPES and CAA/HuS) was “bactericidal activity” and the “CAA/HuS (Log10 CFU/mL), 1 hr” value ([10]; CAA + 25% human serum, lysin 10 μg/ml, 1 hr, WC-453) was 4.6 Log10 CFU/mL. The “CAA/HuS (Log10 CFU/mL), 3 hr” value ([10]; CAA + 25% human serum, lysin 10 μg/ml, 3 hr, WC-453) was under 3.7 Log10 CFU/mL.
